This series is described as follows: yeast display, Sf9 membrane polyspecificity reagent, FACS + sequencing; frameworks hold sequencing errors. The method, boiled down: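 Synthetic nanobody libraries on Saccharomyces cerevisiae BJ5465 were galactose-induced for 36–48 hours, stained 1 hour at 4 °C with 10% biotinylated, detergent-solubilized Sf9 membrane reagent and enriched on streptavidin microbeads. FACS then separated cells into low and high (top ~1%) gates by anti-HA (expression) and streptavidin (reagent binding) fluorescence. Genes were colony-PCR amplified, MiSeq 2 × 250 sequenced and CDR-length filtered. A clone's polyreactivity label is that of its gate of origin.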
With “QVQLVESGGGLVQAGGSLRLSCAASGSIFASNAMGWYRQAPGKERELVAAINSGGNTYEDSVKGRFTISRDNAKNTVYLQMNSLKPEDTAVYYCSVVWNWWSGLSPGYPDFDYWGQGTQVTVSS”, the “polyreactivity (PSR sort gate)” value is “low polyreactivity”.

With “QVQLVESGGGLVQAGGSLRLSCAASGSIFASNTMGWYRQAPGKERELVAGITKIGSSTYYADSVKGRFTISRDNAKNTVYLQMNSLKPEDTAVYYCAAGAWRGPYSGYYYWGQGTQVTVST”, the “polyreactivity (PSR sort gate)” value is on record as “low polyreactivity”.

On to “QVQLVESGGGLVQAGGSLRLSCAASGSIFASYAMGWYRQPPGKERELVAAISIGGTTNYADSVKGRFTISRDNAKNTVYLQMYSLKPEDTAVYYCNAGRWLFNYYYWIYDVRYDYWGQGTQVTVSS”, for which the “polyreactivity (PSR sort gate)” value is listed as “high polyreactivity”.

In the case of “QVQLVESGGGLVQAGGSLRLSCAASGSIFASYVMGWSRQAPGKERELVAAISYSDGRTYYADSVKGRFTISRDNAKNTVYLQMNSLKPEDTAVYYCAADRHARLVIGYRRLRYEYWGQGTQVTVSS”, the “polyreactivity (PSR sort gate)” value is listed as “low polyreactivity”.

For the sequence “QVQLVESGGGLVQAGGSLRLSCAASGSIFATNAMGCYRQAPGKERELVAAISRSGASTYYADSVKGRFTISRDNAKHTVYLQMNRLKPEDTAVYYCNKVLYRDAYQSYGFDYWGQGTQVTVSS”, the “polyreactivity (PSR sort gate)” value is “high polyreactivity”.

In the case of “QVQLVESGGGLVQAGGSLRLSCAASGSIFAVYAMGWYRQAPGKERELVAVITRSGGSTYYADSVKGRFTISRDNAKNTFYLQMNSLKPEDTAVYYCAARTGYGYTRYEYWGQGTQVTVSS”, the “polyreactivity (PSR sort gate)” value was “high polyreactivity”.

Turning to “QVQLVESGGGLVQAGGSLRLSCAASGSIFAVYAMRCYRQAPAKARELVATITGIDTGTYYADSVKGRCTISRDIAKNTVYLHMNILKPEDTAVYYCAAVCRYRHLRFYYWGQGTQGTVSS”, the “polyreactivity (PSR sort gate)” value was “high polyreactivity”.

As for “QVQLVESGGGLVQAGGSLRLSCAASGSIFAWYAMGWYRPAPGKERELVATITWSGGSTYYADSVKGRVTISRDNAKNTVYLQMNSLKPEDTAVYYCAAEVLGIWYDLWDQGDYGGQGTQVTVSS”, the “polyreactivity (PSR sort gate)” value was “low polyreactivity”.

With “QVQLVESGGGLVQAGGSLRLSCAASGSIFAWYGMGWYRQAPGKERELVAAISTAGSTNYADSVKGRFTISRDNAKNTVYLQMNSLKPEDTAVYDCAKKSSWYYPERFDYWGQGTQVTVSS”, the “polyreactivity (PSR sort gate)” value was “low polyreactivity”.

For “QVQLVESGGGLVQAGGSLRLSCAASGSIFAYNAMGWYRQAPGKEREFVAVITRSDDSTYADSVNGRFTISRDNAKNTVSLQMNSLKPEDTAVYYCAALQFVIDGGYRGDYWGQGTQVTVSS”, the “polyreactivity (PSR sort gate)” value is given as “low polyreactivity”.

“QVQLVESGGGLVQAGGSLRLSCAASGSIFAYNAMGWYRQAPGKERELVAAISVGGGRTYYADSVKGRFTISRDNAKNTVYLQMNSLKPEDTAVYYCAASSTAKRYYWGQGTQVTVSS”: the “polyreactivity (PSR sort gate)” value is listed as “high polyreactivity”.

For the sequence “QVQLVESGGGLVQAGGSLRLSCAASGSIFAYYAMGWYRQAPGKERELVAAITRGGRKYYADSVKGRFTISRDNAKNTVYLQMNILKPEYTAVYYCNARNVYFVSPNYDYWGQCTQVTVSS”, the “polyreactivity (PSR sort gate)” value was “high polyreactivity”.

As for “QVQLVESGGGLVQAGGSLRLSCAASGSIFAYYAMGWYRQAPGKERELVAAITWSGGITYYADSVKGRFTISRDNAKNTVYLQMNSLKPEDTAVYYCNADEWPPYEYEYWGQGTQVTVSS”, the “polyreactivity (PSR sort gate)” value is “low polyreactivity”.

For “QVQLVESGGGLVQAGGSLRLSCAASGSIFCQYVMGWYRQAPGKERVLVAAISWSGPRTYYADSVKGRFTISRDNAKNTVDLQMNSLKPEDTAVYYCAARRLYAGHQYDYWGQGTQVTVSS”, the “polyreactivity (PSR sort gate)” value is listed as “high polyreactivity”.

Turning to “QVQLVESGGGLVQAGGSLRLSCAASGSIFDAYAMGWYRQAPGKERELVAGITSGGSTNYADSVKGRFTISRDNAKNSVYLQMNSLKPEDTAVYYCAAQCDYANIYLIFNYWGQGTQVTVSS”, the “polyreactivity (PSR sort gate)” value is “low polyreactivity”.

Turning to “QVQLVESGGGLVQAGGSLRLSCAASGSIFDAYAMGWYRQSPGKERELVAAITTGGGSTYYADSVKGRFTISRDNAKNTVYLQMNSLKPEDTAVYYCAPDYGKYKGYYWGQGTQVTVSS”, the “polyreactivity (PSR sort gate)” value is “low polyreactivity”.

Regarding “QVQLVESGGGLVQAGGSLRLSCAASGSIFDDFAMGWYRQAPGKERELVAAISWSGGRTYYADSVKGRFTISRDNAKNTVYLHMNSLKPDDTAVYYCAATTGVRSRRYYYWGQGTQVTVSS”, the “polyreactivity (PSR sort gate)” value is “low polyreactivity”.

“QVQLVESGGGLVQAGGSLRLSCAASGSIFDDNAMGWYRQAPGKERELVAGISRGGSTNYADSVKGRFTISRDNANNTVYLQMNSLKPEDTAVYYCNKRYKPSWTTYDYWGQGTQVTVSS”: the “polyreactivity (PSR sort gate)” value was “low polyreactivity”.

For the sequence “QVQLVESGGGLVQAGGSLRLSCAASGSIFDDNAMGWYRQAPGKEREMVAAISANDGSTYYADSVKGRFTISRDNAKNTVYLQRNSLNPEDTAVYYCAADVKDYAAQMDSWGQGTQVTVSS”, the “polyreactivity (PSR sort gate)” value was “low polyreactivity”.

Take “QVQLVESGGGLVQAGGSLRLSCAASGSIFDDYAMGWYRQAPGKEREKVAAISWSGGRTYYADSVKGRFTISRDTAKNTVYLQMNSLKPEDTAVYYCAATTGVRSRRYYYWGQGTQVTVSS”: the “polyreactivity (PSR sort gate)” value is on record as “high polyreactivity”.

On to “QVQLVESGGGLVQAGGSLRLSCAASGSIFDDYAMGWYRQAPGKERELVAAISSSGTSTYYADSVKGRFTISRDNAKNTVYLQMNSLKPEDTAGYYCAARSAILKSGYLMDYWGQGTQVTVSS”, for which the “polyreactivity (PSR sort gate)” value is on record as “low polyreactivity”.

Turning to “QVQLVESGGGLVQAGGSLRLSCAASGSIFDDYAMGWYRQAPGKERELVAAISWSGGSTYYADSVKGRFTISRDNAKNTVYLQINSLKPEDTAVYYCAKESGWVGAIHYDYWGQGTQVTVSS”, the “polyreactivity (PSR sort gate)” value was “low polyreactivity”.

On to “QVQLVESGGGLVQAGGSLRLSCAASGSIFDDYAMGWYRQAPGKESELVAAITSGASTNYADSVKGRFTISRDNAKNTFSLQMNSLKPEDTAVYYCAADHDYFVNTDKFDDYWGQGTQVTVSS”, for which the “polyreactivity (PSR sort gate)” value is “low polyreactivity”.

Regarding “QVQLVESGGGLVQAGGSLRLSCAASGSIFDDYAMGWYRQATGKERQLVAAISSSGTSTYYADSVKGRFTISRDNAKNTVYLQMNSLKPEDTAVYYCAARSAILKSGYLMDYWGQGTQVTVSS”, the “polyreactivity (PSR sort gate)” value was “low polyreactivity”.

Consider “QVQLVESGGGLVQAGGSLRLSCAASGSIFDFYAMGWDRQAPGKERELVAAISGSGGSTYYADSVKGRFTISRDNAKNTVYLQMNSLKPEDTAVYYCNAATYRTRHSNNGYWGQGTQVTVSS”, for which the “polyreactivity (PSR sort gate)” value is given as “low polyreactivity”.

As to “QVQLVESGGGLVQAGGSLRLSCAASGSIFDFYAMGWYRQAPGKERELVAAIDDIDDSTYYADSVKGRFTISRDNAKNTVYLQMNCLNPEDTAVYYCAAELRPGYRSSYGLIYDYWGQGTQVTVSS”, the “polyreactivity (PSR sort gate)” value is “low polyreactivity”.

Consider “QVQLVESGGGLVQAGGSLRLSCAASGSIFDFYAMGWYRQAPGKERELVAAITWSGDTTYYADSVKGRFTISRDNAKNTVYLQMNSLKPEDTAVYYCAAEGWYWWYGRDYYWGQGTQVTVSS”, for which the “polyreactivity (PSR sort gate)” value is listed as “high polyreactivity”.

As for “QVQLVESGGGLVQAGGSLRLSCAASGSIFDFYGMGWYRQAPGKERELVATITGTGGGTYYADSVKGRFTISRDNAKNTVYLQMNSLKPEDTAVYYCAADYPYGYWRGLFYYWGHGTQVTVSS”, the “polyreactivity (PSR sort gate)” value was “low polyreactivity”.

Consider “QVQLVESGGGLVQAGGSLRLSCAASGSIFDGNAMGWYRQAPGKERELVASISDSGGSTYYADSVKGRFTISRDNAKNTVYLQMNSLKPEDTAVYYCAKVFVRFYDYYINYWGQGTQVTVSS”, for which the “polyreactivity (PSR sort gate)” value is on record as “low polyreactivity”.

As to “QVQLVESGGGLVQAGGSLRLSCAASGSIFDGNTMGWSRPAPGKERELVATIRWRGGRTYYADSVKGRFTISRDNAKNTVSLQMNSLKPEDTAVYYCNARWGYSRHRLMGYWGQGTQVTVSS”, the “polyreactivity (PSR sort gate)” value is recorded as “high polyreactivity”.

Turning to “QVQLVESGGGLVQAGGSLRLSCAASGSIFDGYAMGWYIQAPGKDRELVAAISGSGGITYYADSVKGRFTISRDNAKNTVYLPMNSLKPEDTAVYYCAADYSWYAGYGYWGQGTQVTVSS”, the “polyreactivity (PSR sort gate)” value is reported as “low polyreactivity”.

For “QVQLVESGGGLVQAGGSLRLSCAASGSIFDGYAMRWYRQAPGKERELVAAIRWGDGITYYADSVKGRFTISRDIAKNTVYLLMNSLKPVDTAVYYCAAVQHGHEPRVQDSYDYWGQGTQVTVSS”, the “polyreactivity (PSR sort gate)” value was “low polyreactivity”.

Turning to “QVQLVESGGGLVQAGGSLRLSCAASGSIFDHTNAMGWYRQAPGKERELVAAITSGSSTNYADSVKGRFTISRDNAKNTVYLQMNSLKPEDTAVYYCNADRFHSGIFDYWGQGTQVTVSS”, the “polyreactivity (PSR sort gate)” value was “low polyreactivity”.

With “QVQLVESGGGLVQAGGSLRLSCAASGSIFDHYAMGWYRQAPGKERELVAAITAICDSTYYADSVKGRFTISRDNAKNTVYLEKNSLKAEDTAVYYCAVTYGGSDGGDYWGQGTQGTVSS”, the “polyreactivity (PSR sort gate)” value was “low polyreactivity”.

In the case of “QVQLVESGGGLVQAGGSLRLSCAASGSIFDINAMGWYRQAPGKEREFVAAISWSGGTTYYADSVKGRFTISRDNAKNPVYLQMNSLKPEDTAVYYCAALSYVKRRQSYGYWGLGTQVTVSS”, the “polyreactivity (PSR sort gate)” value is “high polyreactivity”.

With “QVQLVESGGGLVQAGGSLRLSCAASGSIFDINAMGWYRQAPGKERELVAAISYGGGSTSYADSVKGRFTISRDNAKNTVYLQMNSLKPEDTAVYYCAAGYTQSPRDDSWGQGTQVTVSS”, the “polyreactivity (PSR sort gate)” value is “low polyreactivity”.

Consider “QVQLVESGGGLVQAGGSLRLSCAASGSIFDIYAMGGYRQAPGKERELVAGITRDDGSTYYADSVKGRFTISRDNAKNTVYLQMNSLNPEDTAVYYCNRPGDYPDYVPGYYYWGQGTQVTVSS”, for which the “polyreactivity (PSR sort gate)” value is listed as “low polyreactivity”.

With “QVQLVESGGGLVQAGGSLRLSCAASGSIFDIYAMGWYRQAPGKERELVADITISGGSTYYADSVKGRFTISRDNAKNTVYLQMNSLKPEDTAVYYCKKAYLGYRYDLYDYWGQGTQVTVSS”, the “polyreactivity (PSR sort gate)” value is “low polyreactivity”.

As for “QVQLVESGGGLVQAGGSLRLSCAASGSIFDIYAMGWYRQAPGKERELVASIRRRGGSTYYADSVKGRFTISRDNAKNTVYLQMNSLKPEDTAVYYCNARRVWLRTTGTNWPERGYWGQGTQVTVSS”, the “polyreactivity (PSR sort gate)” value is given as “high polyreactivity”.

As for “QVQLVESGGGLVQAGGSLRLSCAASGSIFDIYGMGWYRQAPGKERELVASISGGAGSTNYADSVKGRFTISRDHAKNTVYLQMNSLKPEDTAVYYCAAEVYVPDYFQHKFDVEYEYWGQGTQVTVSS”, the “polyreactivity (PSR sort gate)” value is recorded as “low polyreactivity”.

The values above are taken from the nanobody polyreactivity screen of Harvey et al. (2022).
